Data reported in US20230374088A1 (GENERAL HOSPITAL, published 2023).

Key:
Gli2-ZF-SNAP [1] = molecular target: T1, Gli2-ZF-SNAP (human, UniProt P10070 418-604, Alexa 647 dye on the SNAP tag in the TIRF assays); experiment: TIRF microscopy; 100 nM Gli2-ZF-SNAP-Alexa647 with 100 nM kinesin on microtubules
T1 construct: Labeled with Alexa 647 for TIRF microscopy; used unlabeled (as far as told) for cryo-EM; also called Gli2-ZF-SNAP-Alexa 647; Gli2-ZF-Alexa 647; not shown: C-terminal SNAP tag
T1 sequence (looked up): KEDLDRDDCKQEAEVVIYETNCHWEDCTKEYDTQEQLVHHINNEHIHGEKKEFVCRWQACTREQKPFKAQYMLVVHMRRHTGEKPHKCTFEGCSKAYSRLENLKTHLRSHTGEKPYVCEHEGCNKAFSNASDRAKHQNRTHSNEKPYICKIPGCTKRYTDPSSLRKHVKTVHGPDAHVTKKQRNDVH
Description: (§1) Briefly, fluorescently labeled (Rhodamine/HiLyte-647) and biotinylated microtubule seeds, polymerized with the non-hydrolyzable GTP analog GMPCPP, were immobilized on a glass coverslip through neutravidin-biotin linkages (FIG. 4A). GMPCPP was chosen as it mimics the GTP-form of tubulin present at microtubule ends (Jiang et al., Developmental cell, 49, 711-730. e8 2019). […] A Gli2 control was used to measure non-specific binding of Gli2-ZF to microtubules. Single molecule photobleaching of purified Kif7-DM confirmed that it is a dimer (FIGS. 11A-D).
To address which of the two Gli-interaction sites of Kif7 plays a role in modulating Kif7 microtubule binding, we generated two chimeric proteins where we swapped either the motor and neck-linker (M) or the coiled-coil (CC) domains of Kif7 and Kif27 (Kif7M-Kif27CC and Kif27M-Kif7CC) (FIG. 5E). […] The binding affinity for each of the two Gli interaction sites on Kif7-DM could be determined using BLI (FIG. 12H). We compared the two chimeras to Kif7-DM in TIRF microscopy-based microtubule binding assay. […] Next, we compared how the microtubule binding of the chimeras were regulated by Gli with respect to Kif7-DM.

[2] = molecular target: T2, GMPCPP-stabilized microtubules (porcine, UniProt P02554 1-445); experiment: TIRF microscopy, GFP intensity on microtubules, no Gli2-ZF
T2 construct: Polymer of tubulin heterodimers; in TIRF partly labeled with X-rhodamine/HiLyte 647 and biotin; also called MT; GMPCPP-microtubule lattice
T2 sequence (P02554 whole entry): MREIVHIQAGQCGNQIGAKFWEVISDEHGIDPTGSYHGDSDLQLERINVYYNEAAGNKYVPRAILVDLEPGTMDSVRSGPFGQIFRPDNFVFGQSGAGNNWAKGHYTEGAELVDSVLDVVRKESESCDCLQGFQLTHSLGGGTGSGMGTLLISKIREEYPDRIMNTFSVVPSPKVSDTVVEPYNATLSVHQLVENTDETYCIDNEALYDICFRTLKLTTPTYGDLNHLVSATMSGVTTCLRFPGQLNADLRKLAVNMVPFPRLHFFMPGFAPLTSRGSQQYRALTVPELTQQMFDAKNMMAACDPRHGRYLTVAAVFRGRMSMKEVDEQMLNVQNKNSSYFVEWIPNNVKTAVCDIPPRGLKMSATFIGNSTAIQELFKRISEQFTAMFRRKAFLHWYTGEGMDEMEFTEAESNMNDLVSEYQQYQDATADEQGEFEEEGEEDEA

Gli2-ZF-SNAP [3] = molecular target: T1, Gli2-ZF-SNAP; experiment: TIRF microscopy; 100 nM Kif7-DM-GFP and 100 nM Alexa-647 labeled Gli2-ZF-SNAP on GMPCPP microtubules
Experimental: Rhodamine/HiLyte 647 labeled GMPCPP-stabilized microtubules (grey) were immobilized on a PEG-treated glass coverslip (yellow) via neutravidin-biotin linkages (blue & brown respectively). Kif7-DM-GFP (green), Gli2-ZF-SNAP-Alexa 647 (pink) and 1 mM ATP were subsequently added to examine binding of both proteins on microtubules. All proteins for TIRF microscopy assay were purified to >95% purity (FIGS. 11A & 11B). See also FIGS. 11C-11D.
as §1, with “To examine whether the Kif7-Gli interaction described above is sufficient for recruiting Gli to microtubules, we reconstituted Gli and Kif7 on microtubules and examined their activity using an in vitro TIRF microscopy assay. Briefly,” for “Briefly,”

GST-Kif7-CC (460-600aa) = molecular target: T3, GST-Kif7-CC (460-600aa) (human, UniProt Q2M1P5 460-600); experiment: BLI association step, GST-Kif7-CC on the sensor, soluble truncation at 125 nM [panel C]
T3 construct: held on the BLI sensor through the GST tag; also called Kif7 coiled-coil domain; coiled-coil dimerization domain fragment of Kif7; not shown: N-terminal GST tag (HRV protease cleavable, modified pGEX vector)
T3 sequence: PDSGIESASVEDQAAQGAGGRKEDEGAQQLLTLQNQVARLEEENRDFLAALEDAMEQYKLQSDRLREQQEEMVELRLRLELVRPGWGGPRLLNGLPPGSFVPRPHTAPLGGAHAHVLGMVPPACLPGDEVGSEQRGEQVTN
Experimental: Equilibrium dissociation constants Kd (shown in parenthesis) were determined by fitting complete binding curves to Hill equation (See FIG. 10C). See also FIGS. 10A, 10B & 10C. Data is representative trace of a minimum of three repeats.
BLI experiments were performed in an Octet Red 96 instrument (ForteBio). To quantify Kif7-Gli2 binding, Experiments were performed in an assay buffer containing 40 mM TRIS pH7.3, 40 mM KCl, 40 μM ATP 1 mM MgCl₂, 0.12% tween and 0.5 mM TCEP. In the simplest assay, dimeric GST-Kif7-CC at a concentration of 120 nM is immobilized on an anti-GST biosensor chip. Unbound Kif7 is washed away with buffer, and the chips are then dipped into buffer with a range of Gli2-ZF concentrations from 0-1 μM to allow for association of the two proteins. After 300 seconds, they are then moved back into a well with just buffer to allow dissociation for 400 seconds. The equilibrium response of each sensor from three independent repeats at each Gli2 concentration were normalized and plotted against Gli2 concentration and fitted with a Hill function to obtain a Kₜ. […] The assays were also performed with HIS-tagged Kif7-DM and the Kif7-Kif27 chimeric proteins, requiring the use of an anti-penta-HIS biosensor chip, and referencing sensors to account for non-specific binding of Gli2 to the HIS sensor. A flipped assay, using HIS-tagged Gli2 on the sensor and a range of Kif7 concentrations in buffer, was also conducted.

GST-Kif7-CC-GFP = molecular target: T4, GST-Kif7-CC-GFP (human, UniProt Q2M1P5 460-600); experiment: SDS-PAGE and in-gel GFP fluorescence intensity of the size exclusion fraction holding the Kif7-CC-GFP:Gli2-ZF-GFP complex; confirmed by quantitative anti-GFP western blot
T4 construct: also called GST-tagged Kif7-CC-GFP; not shown: N-terminal GST tag; GFP tag, C-terminal by the name
T4 sequence: T3 sequence
Experimental: To determine the stoichiometry of the complex (whether one Kif7-CC dimer bind one or two molecules of monomeric Gli2-ZF), we used fluorescence intensity analyses. […] The complex was analyzed by two methods. […] Second, quantitative western blot with fluorescently labeled anti-GFP antibody and densitometric analysis independently confirmed the stoichiometry of the complex (FIG. 8F).
The Kif7-CC and Kif7-DM proteins were not amenable to dynamic light scattering analysis and so in order to determine the stoichiometry of the Kif7-Gli2 complexes, we purified GFP-tagged constructs of Kif7-DM, Kif7-CC, and Gli2-ZF. […] After incubation, 200 μL of this mix was injected into a Superdex 200 10/300 GL column. Fractions that contained complexed protein were determined by elution volume shift in the gel filtration chromatogram. Complex containing fractions were boiled and run in SDS-PAGE and quantified in two ways: (1) Scan of an unstained SDS-PAGE gel at 488 nm, and (2) Scan of a Western blot using a directly labeled […] anti-GFP antibody (Santa Cruz). Both methods were quantified using an Amersham™ Typhoon Scanner and ImageJ for intensity analysis.

[4] = molecular target: T5, Gli2-ZF (418-604aa; zinc finger domain of Gli2) (human, UniProt P10070 418-604); experiment: BLI; GST-Kif7-SCC on sensor, Gli2-ZF as analyte, Hill fit
T5 construct: Expressed with an HRV-cleavable N-terminal 6xHis tag, cleaved 'if needed'; also called Gli-ZF
T5 sequence (looked up): T1 sequence (looked up)

B1: Kif7M-Kif27CC chimera (other, human)
chain: MGLEAQRLPGAEEAPVRVALRVRPLLPKELLHGHQSCLQVEPGLGRVTLGRDRHFGFHVVLAEDAGQEAVYQACVQPLLEAFFEGFNATVFAYGQTGSGKTYTMGEASVASLLEDEQGIVPRAMAEAFKLIDENDLLDCLVHVSYLEVYKEEFRDLLEVGTASRDIQLREDERGNVVLCGVKEVDVEGLDEVLSLLEMGNAARHTGATHLNHLSSRSHTVFTVTLEQRGRAPSRLPRPAPGQLLVSKFHFVDLAGSERVLKTGSTGERLKESIQINSSLLALGNVISALGDPQRRGSHIPYRDSKITRILKDSLGGNAKTVMIACVSPSSSDFDETLNTLNYASRAQNIRNRATVNWRPEAERPPEETASGARGPPRHRSETRIIHRGRRAPGPATASAAAAMRLGAECARYRACTDAAYSLLRELQAEPGLPGAAARKVRDWLCAVEGERSALSSASGPDSVLQLKRELKKCQCVLAADEVVFNQKELEVKELKNQVQMMVQENKGHAVSLKEAQKVNRLQNEKIIEQQLLVDQLSEELTKLNLSVTSSAKENCGDG
notes: range 475-570; not shown: HIS tag (used for BLI); GFP tag
- fold decrease in Gli recruitment on microtubules compared to Kif7-DM (Alexa-647 intensity per GFP intensity) (Gli2-ZF-SNAP [1]): 3 fold
- fold binding to microtubules compared to Kif7-DM (GFP intensity) [2]: ~10 fold

B2: Kif7-DM-GFP (1-543aa) (other)
chain: MGLEAQRLPGAEEAPVRVALRVRPLLPKELLHGHQSCLQVEPGLGRVTLGRDRHFGFHVVLAEDAGQEAVYQACVQPLLEAFFEGFNATVFAYGQTGSGKTYTMGEASVASLLEDEQGIVPRAMAEAFKLIDENDLLDCLVHVSYLEVYKEEFRDLLEVGTASRDIQLREDERGNVVLCGVKEVDVEGLDEVLSLLEMGNAARHTGATHLNHLSSRSHTVFTVTLEQRGRAPSRLPRPAPGQLLVSKFHFVDLAGSERVLKTGSTGERLKESIQINSSLLALGNVISALGDPQRRGSHIPYRDSKITRILKDSLGGNAKTVMIACVSPSSSDFDETLNTLNYASRAQNIRNRATVNWRPEAERPPEETASGARGPPRHRSETRIIHRGRRAPGPATASAAAAMRLGAECARYRACTDAAYSLLRELQAEPGLPGAAARKVRDWLCAVEGERSALSSASGPDSGIESASVEDQAAQGAGGRKEDEGAQQLLTLQNQVARLEEENRDFLAALEDAMEQYKLQSDRLREQQEEMVELRLRLELVRP
notes: Dimer; Used in TIRF, size exclusion and BLI (HIS-tagged, anti-penta-HIS sensor); also called GFP-tagged recombinant dimeric Kif7 protein; GFP-tagged Kif7-DM; not shown: TEV-cleavable N-terminal 6xHis tag and SUMOstar tag; His tag on in the BLI assay, state in other a; GFP tag, C-terminal by the name
- fold Gli2-ZF Alexa-647 intensity on microtubules over Gli2 alone (Gli2-ZF-SNAP [1]): ~9 fold
- fold increase over background of Gli2 intensity on microtubules (Gli2-ZF-SNAP [3]): 3 fold

B3: ZF1-2 (418-497) (other, human, UniProt P10070 418-497, looked up)
Gli2 zinc-finger truncation: KEDLDRDDCKQEAEVVIYETNCHWEDCTKEYDTQEQLVHHINNEHIHGEKKEFVCRWQACTREQKPFKAQYMLVVHMRRH
notes: One of the three truncations of the group m9; also called Gli2-ZF truncation ZF1-2
- binding result (GST-Kif7-CC (460-600aa)): no binding (tested: 125 nM)

B4: ZF3-5 (500-604) (other, human, UniProt P10070 500-604, looked up)
Gli2 zinc-finger truncation: EKPHKCTFEGCSKAYSRLENLKTHLRSHTGEKPYVCEHEGCNKAFSNASDRAKHQNRTHSNEKPYICKIPGCTKRYTDPSSLRKHVKTVHGPDAHVTKKQRNDVH
notes: residues 500-604; One of the three truncations of the group m9; also called Gli2-ZF truncation ZF3-5
- binding result (GST-Kif7-CC (460-600aa)): no binding (tested: 125 nM)

B5: Gli2-ZF-GFP (other, human, UniProt P10070 418-604, looked up)
chain: T1 sequence (looked up)
notes: HRV-cleavable N-terminal 6xHis tag in the vector; not shown: C-terminal GFP tag
- stoichiometry of interaction (GST-Kif7-CC-GFP): 0.5 Gli2-ZF molecules per Kif7-CC chain (1:2, one Gli2-ZF monomer per Kif7-CC dimer)

B6: Kif27M-Kif7CC chimera (other, human)
chain: MEEIPVKVAVRIRPLLCKEALHNHQVCVRVIPNSQQVIIGRDRVFTFDFVFGKNSTQDEVYNTCIKPLVLSLIEGYNATVFAYGQTGSGKTYTIGGGHIASVVEGQKGIIPRAIQEIFQSISEHPSIDFNVKVSYIEVYKEDLRDLLELETSMKDLHIREDEKGNTVIVGAKECHVESAGEVMSLLEMGNAARHTGTTQMNEHSSRSHAIFTISICQVHKNMEAAEDGSWYSPRHIVSKFHFVDLAGSERVTKTGNTGERFKESIQINSGLLALGNVISALGDPRRKSSHIPYRDAKITRLLKDSLGGSAKTVMITCVSPSSSNFDESLNSLKYANRARNIRNKPTVNFSPESDRIDEMEFEIKLLREALQSQQAGVSQTTQINREGSPDTNRIHSLEEQVAQLQGECLGYQCCVEEAFTFLVDLKDTVRLNEKQQHKLQEWFNMIQEVRKAVLTSFRGIGGTASLEEGPQHVTVPDSGIESASVEDQAAQGAGGRKEDEGAQQLLTLQNQVARLEEENRDFLAALEDAMEQYKLQSDRLREQQEEMVELRLRLELVRPGWGGPRLLNGLPPGSFVPRPHTAPLGGAHAHVLGMVPPACLPGDEVGSEQRGEQVTN
notes: range 1-475; not shown: HIS tag (used for BLI); GFP tag
- fold decrease in Gli recruitment on microtubules compared to Kif7-DM (Alexa-647 intensity per GFP intensity) (Gli2-ZF-SNAP [1]): 2 fold
- fold binding to microtubules compared to Kif7-DM (GFP intensity) [2]: ~3 fold

B7: ZF4-5 (530-604) (other, human, UniProt P10070 530-604, looked up)
Gli2 zinc-finger truncation: EKPYVCEHEGCNKAFSNASDRAKHQNRTHSNEKPYICKIPGCTKRYTDPSSLRKHVKTVHGPDAHVTKKQRNDVH
notes: residues 530-604; One of the three truncations of the group m9; also called Gli2-ZF truncation ZF4-5
- binding result (GST-Kif7-CC (460-600aa)): no binding (tested: 125 nM)

B8: GST-Kif7-SCC (481-543aa) (other)
chain: KEDEGAQQLLTLQNQVARLEEENRDFLAALEDAMEQYKLQSDRLREQQEEMVELRLRLELVRP
notes: The limits of the results section are used; also called shorter coiled-coil segment of Kif7-CC; not shown: GST tag, by the name GST-Kif7-SCC
- Kd [4]: 69 nM
